The text below walks through data of patent US20210386875.

This data set deals with T1, [^125I]LS370.
T1 chain: XYXDEVDGKGC

B1: Caspase-3 (Cal Biochem) (protein)
chain: SGISLDNSYKMDYPEMGLCIIINNKNFHKSTGMTSRSGTDVDAANLRETFRNLKYEVRNKNDLTREEIVELMRDVSKEDHSKRSSFVCVLLSHGEEGIIFGTNGPVDLKKITNFFRGDRCRSLTGKPKLFIIQACRGTELDCGIETDSGVDDDMACHKIPVEADFLYAYSTAPGYYSWRNSKDGSWFIQSLCAMLKQYADKLEFMHILTRVNRKVATEFESFSFDATFHAKKQIPCIVSMLTKELYFYH
On to B1, for which the “hydrolysis by caspase-3 (radiochromatogram)” value was “[^125I]LS370 eluted at 19.5 min, and in the presence of caspase-3, the cleaved fragments eluted at 12.5 and 13 min”; the kcat (kinetic analysis of hydrolysis, radio-HPLC) is 1.02 s⁻¹.
